What was measured:
[1] = target: soluble DR 11 (DRB1*1101) class II molecules purified from SWEIG EBV-B cells (human) (UniProt P01903); experiment: peptide competition ELISA, soluble DR 11, biotinylated indicator TT831-843
[2] = target: soluble DR 8 (DRB1*0801) class II molecules purified from BM9 EBV-B cells (human) (UniProt P01903); experiment: peptide competition ELISA, soluble DR 8, biotinylated indicator GYR(A)6L
[3] = target: soluble DR 1 (DRB1*0101) class II molecules purified from HOM-2 EBV-B cells (human) (UniProt P01903); experiment: peptide competition ELISA, soluble DR 1, biotinylated indicator GFK(A)7
[4] = target: soluble DR 2a (DRB5*0101) molecules isolated from L cells transfectant L416.3 (human) (UniProt P01903)
[5] = target: soluble DR4 (DRB1*0401) class II molecules purified from BSM or PREISS EBV-B cells (human) (UniProt P01903); experiment: peptide competition ELISA, soluble DR 4, biotinylated indicator UD4
[6] = target: soluble DR 7 (DRB1*0701) class II molecules purified from EKR EBV-B cells (human) (UniProt P01903); experiment: peptide competition ELISA, soluble DR 7, biotinylated indicator GFK(A)7, pH 5

Substance: HA307-319 peptide derived from influenza hemagglutinin
- IC50 [1]: 1000 nM
- IC50 [2]: 5000 nM
- IC50 [3]: 100 nM
- IC50 [4]: 30 nM
- IC50 [5]: 1000 nM
- IC50 [6]: 100 nM
